# Data: publication PMC10786891, “Massively parallel profiling of RNA-targeting CRISPR-Cas13d”
# Residue numbers refer to the chain shown, from its start. In names and notes the source's numbering stands.
# B1: target 1 insG 3' of 18,insA 3' of 15 (mixed)
# RNA 1: CACCCGUGCAAAAAUGCAGGGGUCUAAAACUGAGCGGAUAACCUCUCUAUGG
# RNA 2: GGGAAUGGAUCCACAUCUACGAAUUCGUACCAUAGGAGAAGGUUAUCCGCUCACCGAGAUCGGAAGAGCACACGU
# B2: target 1 complement block 1-11 (mixed)
# RNA 1: B1 RNA 1
# RNA 2: GGGAAUGGAUCCACAUCUACGAAUUCGUACCAUAGAGAGGAAUAGGCGAGUCCGAGAUCGGAAGAGCACACGU
# B3: target 1 del11,del15 (mixed)
# RNA 1: B1 RNA 1
# RNA 2: GGGAAUGGAUCCACAUCUACGAAUUCGUACCAUAGAAGGUAUCCGCUCACCGAGAUCGGAAGAGCACACGU
# B4: target 1 complement block 9-11 (mixed)
# RNA 1: B1 RNA 1
# RNA 2: B2 RNA 2 with A44U, G45C, G46C, C47G, G48C, A49U, G50C, U51A
# B5: target 1 insC 3' of 20,insC 3' of 17 (mixed)
# RNA 1: B1 RNA 1
# RNA 2: B1 RNA 2 with U33C, A34U, G35A, A37C, G38A, A39G
# B6: target 1 insG 3' of 19,insA 3' of 12 (mixed)
# RNA 1: B1 RNA 1
# RNA 2: B1 RNA 2 with A34G, G35A, A40G, G42A
# B7: target 1 insG 3' of 20,insC 3' of 20 (mixed)
# RNA 1: B1 RNA 1
# RNA 2: B1 RNA 2 with U33G, A34C, G35U, G36A, A37G, G38A, A39G
# B8: target 1 insC 3' of 18,insC 3' of 13 (mixed)
# RNA 1: B1 RNA 1
# RNA 2: B1 RNA 2 with G35C, A40G, G41C
# B9: target 1 G5U,G12U (mixed)
# RNA 1: B1 RNA 1
# RNA 2: GGGAAUGGAUCCACAUCUACGAAUUCGUACCAUAGAGAGUUUAUCCUCUCACCGAGAUCGGAAGAGCACACGU
# B10: target 1 U8C,G15U (mixed)
# RNA 1: B1 RNA 1
# RNA 2: B9 RNA 2 with G37U, U40G, U44C, U47G
# B11: target 1 insA 3' of 6,insU 3' of 5 (mixed)
# RNA 1: B1 RNA 1
# RNA 2: GGGAAUGGAUCCACAUCUACGAAUUCGUACCAUAGAGAGGUUAUCCAGUCUCACCGAGAUCGGAAGAGCACACGU
# B12: target 1 insU 3' of 20,insU 3' of 2 (mixed)
# RNA 1: B1 RNA 1
# RNA 2: GGGAAUGGAUCCACAUCUACGAAUUCGUACCAUUAGAGAGGUUAUCCGCUCUACCGAGAUCGGAAGAGCACACGU
# B13: target 1 complement block 2-11 (mixed)
# RNA 1: B1 RNA 1
# RNA 2: B2 RNA 2 with U51A
# B14: target 1 G5C,A20C (mixed)
# RNA 1: B1 RNA 1
# RNA 2: B9 RNA 2 with A32C, U40G, U47C
# B15: target 1 insA 3' of 10,insU 3' of 6 (mixed)
# RNA 1: B1 RNA 1
# RNA 2: B11 RNA 2 with U44A, C45U, A47C, G48U, U49G
# B16: target 1 C7A,G15A (mixed)
# RNA 1: B1 RNA 1
# RNA 2: B9 RNA 2 with G37A, U40G, C45A, U47G
# B17: target 1 insA 3' of 17,insU 3' of 6 (mixed)
# RNA 1: B1 RNA 1
# RNA 2: B1 RNA 2 with G36A, A40G, G42U, U44A, A45U, U46C, C48U
# B18: target 1 insC 3' of 19,insA 3' of 6 (mixed)
# RNA 1: B1 RNA 1
# RNA 2: B12 RNA 2 with U34C, G48A, C49G, U50C, C51U, U52C
# B19: target 1 insG 3' of 22,insC 3' of 22 (mixed)
# RNA 1: B1 RNA 1
# RNA 2: B1 RNA 2 with C31G, A32C, U33C, G35U, G36A, A37G, G38A, A39G
# B20: target 1 insG 3' of 18,insU 3' of 5 (mixed)
# RNA 1: B1 RNA 1
# RNA 2: B12 RNA 2 with U34A, A35G, C49U, U50C, C51U, U52C
# B21: target 1 insU 3' of 18,insU 3' of 2 (mixed)
# RNA 1: B1 RNA 1
# RNA 2: B12 RNA 2 with U34A, A35U
# B22: target 1 C6U,A9G (mixed)
# RNA 1: B1 RNA 1
# RNA 2: B9 RNA 2 with U40G, A43G, C46U, U47G
# B23: target 1 insA 3' of 15,insA 3' of 15 (mixed)
# RNA 1: B1 RNA 1
# RNA 2: B1 RNA 2 with G36A, A37G, G38A
# B24: target 1 insA 3' of 7,insC 3' of 1 (mixed)
# RNA 1: B1 RNA 1
# RNA 2: B11 RNA 2 with C46A, A47C, U49C, C50U, U51C, C52A, A53C
# B25: target 1 insC 3' of 14,insC 3' of 8 (mixed)
# RNA 1: B1 RNA 1
# RNA 2: B11 RNA 2 with G39C, U41G, A43U, U44A, C45U, A47C, G48C, U49G
# B26: target 1 insU 3' of 14,insG 3' of 4 (mixed)
# RNA 1: B1 RNA 1
# RNA 2: B11 RNA 2 with G39U, U41G, A43U, U44A, C45U, A47C, U49C, C50G
# B27: target 1 insC 3' of 8,insA 3' of 7 (mixed)
# RNA 1: B1 RNA 1
# RNA 2: B11 RNA 2 with G48C, U49G
# B28: target 1 insU 3' of 1,insU 3' of 1 (mixed)
# RNA 1: B1 RNA 1
# RNA 2: B11 RNA 2 with A47G, G48C, U51A, C52U, A53U
# B29: target 1 C7U,U8C (mixed)
# RNA 1: B1 RNA 1
# RNA 2: B9 RNA 2 with U40G, U44C, C45U, U47G
# B30: target 1 insC 3' of 22,insC 3' of 11 (mixed)
# RNA 1: B1 RNA 1
# RNA 2: B1 RNA 2 with A32C, U33A, A34U, G35A, A40G, G42U, U43C
# B31: target 1 insA 3' of 22,insC 3' of 5 (mixed)
# RNA 1: B1 RNA 1
# RNA 2: B12 RNA 2 with C31A, A32C, U33A, U50C, C51U, U52C
# B32: target 1 complement block 4-12 (mixed)
# RNA 1: B1 RNA 1
# RNA 2: B2 RNA 2 with G40C, A49U, G50C, U51A
# Target: T1, EsCas13d, nuclease-dead (Eubacterium siraeum, UniProt B0MS50, R295A;H300A;R849A;H854A)
# T1 sequence: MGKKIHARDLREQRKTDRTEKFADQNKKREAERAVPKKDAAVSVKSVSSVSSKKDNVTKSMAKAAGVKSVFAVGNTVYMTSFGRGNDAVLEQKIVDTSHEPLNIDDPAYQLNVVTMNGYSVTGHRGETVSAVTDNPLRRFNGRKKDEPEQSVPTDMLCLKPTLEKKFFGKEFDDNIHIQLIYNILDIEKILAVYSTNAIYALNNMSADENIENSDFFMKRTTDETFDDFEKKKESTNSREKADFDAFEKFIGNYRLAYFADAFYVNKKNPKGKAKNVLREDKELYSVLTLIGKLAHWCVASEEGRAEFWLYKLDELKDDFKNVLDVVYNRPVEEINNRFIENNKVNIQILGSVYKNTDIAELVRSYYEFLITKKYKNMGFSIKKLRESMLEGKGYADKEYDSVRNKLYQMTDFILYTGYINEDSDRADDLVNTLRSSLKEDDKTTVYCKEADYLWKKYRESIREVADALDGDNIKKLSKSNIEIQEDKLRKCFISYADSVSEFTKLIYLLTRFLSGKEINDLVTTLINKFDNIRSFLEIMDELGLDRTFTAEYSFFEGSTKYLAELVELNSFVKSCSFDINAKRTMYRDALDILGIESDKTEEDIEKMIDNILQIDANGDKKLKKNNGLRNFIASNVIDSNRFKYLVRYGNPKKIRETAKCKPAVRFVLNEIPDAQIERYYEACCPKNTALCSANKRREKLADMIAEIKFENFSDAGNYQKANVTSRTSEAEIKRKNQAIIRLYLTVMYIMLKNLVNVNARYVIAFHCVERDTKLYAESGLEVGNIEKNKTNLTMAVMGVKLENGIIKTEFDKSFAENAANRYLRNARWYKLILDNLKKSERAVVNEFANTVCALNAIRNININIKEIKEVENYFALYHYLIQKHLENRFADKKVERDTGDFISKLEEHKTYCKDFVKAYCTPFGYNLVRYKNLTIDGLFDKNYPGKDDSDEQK
# Test: crRNA (strand 1, pre-loaded); Mg2+; 40 mM Tris-HCl pH 7.5, 150 mM NaCl, 6 mM MgCl2, 1 mM DTT, 0.1% Tween-20, 0.2 mg/ml BSA; 25 C; 10 min per concentration, then washed
# Conditions: tags: His6-TwinStrep-SUMO cleaved; N-terminal SNAP kept (SNAP-Surface 488); label: 3' end held by stalled T7 RNA polymerase
row,Binder,Kd [nM]
1,B1,61 ± 10
2,B2,13.3 ± 0.5
3,B3,35 ± 5
4,B4,22.9 ± 1.5
5,B5,4.9 ± 0.6
6,B6,~80
7,B7,50 ± 7
8,B8,49 ± 6
9,B9,41 ± 7
10,B10,34.6 ± 2.5
11,B11,41 ± 5
12,B12,16.3 ± 1.6
13,B13,12.3 ± 0.33
14,B14,47 ± 7
15,B15,13.9 ± 0.5
16,B16,14.6 ± 0.5

row,Binder,Kd [nM]
1,B17,14.5 ± 0.8
2,B18,38.2 ± 2.2
3,B19,9.1 ± 0.4
4,B20,65 ± 11
5,B21,25.8 ± 2.4
6,B22,14.2 ± 0.9
7,B23,6.1 ± 0.5
8,B24,5.8 ± 0.4
9,B25,48 ± 7
10,B26,31.8 ± 2.8
11,B27,15 ± 0.6
12,B28,11.3 ± 0.9
13,B29,8.7 ± 0.5
14,B30,50 ± 6
15,B31,27.7 ± 3.5
16,B32,19.6 ± 1.3
